In US10337022B2, “Methods of increasing root biomass in plants” (Agresearch Limited, priority 2014, dated 2019):

T1: BZR1 (Arabidopsis thaliana, UniProt Q8S307)
T1 construct: expressed in transfected cells; host or cells: Nicotiana benthamiana leaves (Agrobacterium infiltration)
T1 sequence (Q8S307 1-336): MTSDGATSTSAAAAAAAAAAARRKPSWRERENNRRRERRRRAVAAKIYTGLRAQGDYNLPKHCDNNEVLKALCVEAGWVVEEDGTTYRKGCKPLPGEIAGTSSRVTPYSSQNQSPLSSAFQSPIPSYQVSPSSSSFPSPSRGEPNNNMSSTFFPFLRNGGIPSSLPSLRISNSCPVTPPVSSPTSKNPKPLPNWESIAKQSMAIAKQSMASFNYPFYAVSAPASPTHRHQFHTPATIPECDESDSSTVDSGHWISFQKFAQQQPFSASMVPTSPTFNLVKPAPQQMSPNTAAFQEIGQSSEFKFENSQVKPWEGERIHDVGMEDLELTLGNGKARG

B1: P. abies PPD: Picea abies PEAPOD protein, SEQ ID NO: 4 (protein)
chain: MRGGGGADRLPARANLEKPLEDLSHEDIMQLTREDCRRYLIEKGMRRPSWNKSQAIQQVLSLKKLFESGPNDEKRSAATNRPNPDENLKEAASVSLLYGSQPESPSVVFASKDSDTFNLEWLAKTELPVLASQPRHIAQQNVFLSSLSAQQSGAQLTIFYSGNVNVYDDVPAEKAQEIMLLAGSGNYPPSSTCQSTRNTQQNAVRAAYPSNPTNTPFIHGVGPPLATVASSSVMSSPIHKESPITRKASLQRFLEKRKDRSRGKLGAPTISKKPLLMGMFMHPSIVHRQYWTDTAKRKSGKPDIPASISPTRPPHTPRRTSSDEQLSARHARGDISAQGGSLHNSN
modifications: Picea abies
B2: A. trichopoda PPD: Amborella trichopoda PEAPOD protein, SEQ ID NO: 12 (protein, listed as Amborella trichopoda)
chain: MTAGDGSIRSILDKPLEELTEEDISQLTREDCRRYLKEKGMRRPSWNKYQAIQQVLSLKGLLEGKPCDDNSDVFSHRSPITVIPNVGSMREKEKAVNIADPEISGSHQPNFRREIHETTRERALPASDWPPSQEPVSQMTIFYAGAVNVYNDIPEDKVQAIIYLAGKSDSLQQTNVIRTGPDQCIASAASPSLNDLHSRRIHPTSNITTSQSLRVATSLPVGPHSEVPKTRKTSVQRFLEKRKDRGRLKGTLASGGSSKRGSSCLELYATSRLKSEGVATTTTQSNMNNVVVSPSNPRMPLNPGSCSWVEN
B3: P. sitchensis PPD: Picea sitchensis PEAPOD protein, SEQ ID NO: 5 (protein, listed as Picea sitchensis)
chain: MRGGERAPGSRPSLDKPLEELTEEDIFQLTREDCRRYLKEKGMRRPSWNKSQAIQQVLSLKSLFESKPNQQSKKPSKHKPATLQFETARDSTFAQSSVSQEQSLGFSWSKEVLDKGTAERQRLCSDSQEAHEIPRLGSKPPQSNTEGKRCAHDGHGRKSAQPLVRLPANFKNDCSNRQSSHTSESQPDTLLRSDSFQQPTAQLTIFYAGMVNVYDDVPLDKA
B4: T. repens PPD: Trifolium repens PEAPOD protein, SEQ ID NO: 11 (protein, listed as Trifolium repens)
chain: MNGGSTVSFRSILDKPLNQLTEDDISQLTREDCRRFLKDKGMRRPSWNKSQAIQQVISLKALLEPTDDDLPAPVGVSSAIHHHHHHHPQPPQRNLNEAPVKGSDLDDTGFHTAEDLNKSTSTAVEIPTETNDANVVKSSGGCVASGSFGQMTIFYCGKVNVYDGVSPDKARSIMQLAACPSSFPQDNLLNKNAAVWASPCNIPIDKDVLFPNDTAILQVAQTDKMVEYPLQYREKGSIARDADVEGQASRNASLQRYREKRKDRGRSKGNKLTGITSSNFEMYLNLPVKLHASNGNSSRSSTDSPPQPRLPLVSGGSAENQPKVTLPIDLNDKDVQEC

What was measured:
[1] = tested on: Wild-type (Col-0), Δppd mutant and transgenic PPD-OX seedlings; experiment: Hypocotyl length response to exogenous GA or PAC; type: in vivo, Arabidopsis
Description: Giberellic acid (GA) treatment is known to reduce levels of the DELLA proteins (including RGA1) which are GA repressors; to determine the relationship between PPD, DELLA and the GA signalling pathway the applicants performed a yeast two-hybrid (Y2H) analysis between PPD and DELLA (RGA1) and applied gibberellic acid (GA) hormone and GA biosynthesis inhibitor (paclobutrazol, PAC) to wild type, Δppd mutant, and the Δppd mutant PPD over expressor (PPD-OX).
For exogenous applications of GA or PAC seeds were surface sterilised with 70% ethanol, 0.01% Triton X-100 for 10 min, followed by 100% ethanol for 5 min, air dried on sterile filter paper, and transferred to media plates containing half-strength MS salts, 1% sucrose and 0.8% agar. Plates were incubated for 5 days at 4° C. in the dark then transferred to 24° C. with a 14 h light/10 h dark daily cycle. Light was provided by fluorescent tubes (Philips TLD 58W/865) at an intensity of 100 μM m^−2 s^−1. Wild-type (Col-0) Δppd mutant and transgenic PPD-OX seedlings were grown for five days on medium with different concentrations of GA (FIG. 10A) or PAC (FIG. 10B). GA (ACROS organics), and PAC (Sigma-Aldrich) were dissolved in ethanol and acetone respectively, filter sterilised and incorporated into media plates. Ethanol or acetone (0.5%) was used for mock treatments. Seedlings were grown at 24° C. under a 14 h light/10 h dark daily cycle for 5 days before hypocotyl lengths were analysed (n=35). Each treatment was repeated twice; error bars=standard error of the mean.

BZR1 = biological target: T1, BZR1; experiment: BiFC interaction with BZR1 in Nicotiana benthamiana leaves; type: cell-based; details: fully expanded leaves, co-expressed with cYFP-BZR1
Description: The binary BiFC-Gateway YFP vectors pDEST-VYNE(R)^GW (Venus aa 1-173) and pDEST-VYCE(R)^GW (Venus aa 156-239) with N-terminal fusions, were used to construct the following vectors; pDESTnYFP-BZR1, pDESTnYFP-NINJA, pDESTnYFP-PPD1, pDESTcYFP-BZR1, pDESTcYFP-PPD1, pDESTcYFP-PPD1Δppd, pDESTcYFP-PPD1Δtify and pDESTcYFP-PPD1Δjas*. […] Plasmids for co-immunoprecipitation: A synthesised DNA construct encoding PPD1 with a 3×c-myc C-terminal fusion was sub-cloned into pRSh1 to produce pRSh1-PPD1-3×c-myc, while the NINJA cDNA sequence was sub-cloned into pB7FWG2,0 (Karimi et al 2002, Trends Plant Sci. 7, 193-195) to construct pB7FWG2-NINJA-GFP.
For infiltration Agrobacterium tumefaciens GV3101 strains containing the binary vectors were re-suspended from plates and prepared for transformation as described for the LUC assay. All YFP and expression strains were mixed in ratios of 1:1 (vol/vol) with the addition of strain P19 at 1/10th volume. Five leaf discs were sampled from each infiltrated leaf after 40 h. Two hours prior to sampling for microscopic fluorescence observations leaves were infiltrated with a 1 μg/ml DAPI solution to stain nuclei. YFP fluorescence and DAPI staining was detected using an Olympus Fluoview FV10i confocal laser scanning microscope. Each experiment was repeated twice.

Δppd Arabidopsis plants = experiment: Root biomass analysis of Arabidopsis transformants; type: in vivo; details: constitutive promoter, approximately 6 weeks in growth cabinet
Experimental: Seeds from WT and Δppd Arabidopsis plants transformed with T. repens PPD under a constitutive promoter were scarified and sown into potting mix. […] The increase in root biomass was quantified by washing the roots under running water then the attached above ground portion (leaves and stems) was removed and the roots dried at 65° C. for 48 hr then weighed.

ryegrass plants = experiment: Root biomass analysis of ryegrass transformants; type: in vivo; details: approximately 6 weeks in glasshouse
Experimental: (§1) An equal number (typically 4-10) of tillers were taken from WT and ryegrass plants transformed with Arabidopsis PPD under a constitutive promoter. Tillers were planted into plastic grow bags containing potting mix and pruned to be of equal height. […] The increase in root biomass was quantified by washing the roots under running water then removing the attached above ground portion (leaves and stems) and drying the roots at 65° C. for 48 hr then weighing the dry weights (Table 2).
as §1, with “one of three root promoters.” for “a constitutive promoter.”, “3 and Table 4)” for “2).”

[2] = tested on: PEAPOD deletion mutant Δppd Arabidopsis thaliana ecotype Landsberg erecta; experiment: Complementation of the Arabidopsis Δppd mutant leaf phenotype; type: in vivo; details: optimized PEAPOD coding sequence under CaMV35s promoter, seedlings (FIG. 13)
Description: The functionality of any PEAPOD sequence can be confirmed by complementation of the Arabidopsis Δppd mutant leaf phenotype. Complementation of the Arabidopsis Δppd mutant leaf phenotype was first used to identify the Arabidopsis PPD gene (White 2006). This was seen by a restoration of the wild type flattened leaf phenotype and normal rosette shape as opposed to the domed leaf and the twisting of the rosette to a “propeller” phenotype.
Constructs above can be transformed into Arabidopsis by the floral dip infiltration method (Clough and Bent, 1998 Plant J 16, 735-43). The Δppd line is transformed to express the PPD polypeptides by standard techniques. Transgenic plants are confirmed by standard PCR analysis techniques with a combination of transgene-specific and T-DNA primers.
Complementation of the Δppd line to produce a wild-type leaf and rosette phenotype in T1 seedlings (the off-spring of the infiltrated plant) confirms PEAPOD functionality of the introduced gene, which can be shown in photographs.

Molecule	root growth beyond the pot compared to WT plants (Δppd Arabidopsis plants)	root growth beyond the grow bag compared to WT plants (ryegrass plants; constitutive promoter)	root growth beyond the grow bag compared to WT plants (ryegrass plants; one of three root promoters)	PEAPOD functionality by complementation of Δppd mutant [2]	other results
CC(C)(C)[C@@H](O)[C@@H](Cc1ccc(Cl)cc1)n1cncn1 (racemic) [PAC, paclobutrazol]	–	–	–	–	hypocotyl length ([1]; PPD-OX seedlings, PAC beyond 0.1 μM): decrease in hypocotyl length; hypocotyl length ([1]; PPD-OX seedlings, PAC up to 0.1 μM): relatively insensitive; hypocotyl elongation ([1]; wild type seedlings, 0 to 10 μM PAC): dose dependent decrease of hypocotyl elongation; hypocotyl elongation ([1]; Δppd seedlings, 0 to 10 μM PAC, compared with wild type): larger reduction in hypocotyl elongation
C=C1C[C@]23C[C@@]1(O)CC[C@H]2[C@@]12C=C[C@H](O)[C@@](C)(C(=O)O1)[C@H]2[C@@H]3C(=O)O [GA, gibberellic acid]	–	–	–	–	hypocotyl elongation ([1]; PPD-OX seedlings, 1 μM GA, 5 days): increased hypocotyl elongation; hypocotyl elongation ([1]; PPD-OX seedlings, up to 10 μM GA): hypersensitive elongation; hypocotyl elongation ([1]; WT seedlings, 5-50 μM GA, 5 days): elongation of the WT hypocotyl occurred in a dose dependent manner; hypocotyl elongation ([1]; wild type (WT) seedlings, 1 μM GA, 5 days): did not promote elongation; hypocotyl elongation ([1]; Δppd seedlings, 1 μM GA, 5 days): increased hypocotyl elongation; hypocotyl elongation ([1]; Δppd seedlings, up to 5 μM GA): hypersensitive elongation
nYFP-PPD1: PPD1 with N-terminal fusion of Venus aa 1-173 for BiFC	–	–	–	–	BiFC interaction with BZR1 (BZR1): no interaction was observed
B1	increase in root biomass/growth/length/branching	–	–	–	–
B2	increase in root biomass/growth/length/branching	increase in root biomass/growth/length/branching	increase in root biomass/growth/length/branching	functionally equivalent	–
B3	–	increase in root biomass/growth/length/branching	increase in root biomass/growth/length/branching	functionally equivalent	–
B4	increase in root biomass/growth/length/branching	increase in root biomass/growth/length/branching	increase in root biomass/growth/length/branching	functionally equivalent	–
